Where “and” joins values, the source holds several entries; their conditions need not be identical. Identical values can stand only once.
Biological target: the molecule itself
Test: relative peak intensities in 2D HSQC NMR spectra; monomer/dimer/tetramer levels of CXCL7 as a function of buffer, temperature, pH and concentration (Table S1)

B1: CXCL7 (NAP-2, neutrophil-activating peptide 2), wild type (natural protein, UniProt P02775 59-128, looked up)
chain: AELRCMCIKTTSGIHPKNIQSLEVIGKGTHCNQVEVIATLKDGRKICLDPDAPRIKKIVQKKLAGDESAD
notes: Chemokine CXCL7, also known as NAP-2; 15N-labelled for the HSQC titrations; Exists as monomer, dimer and tetramer depending on pH and concentration; also called WT CXCL7; native CXCL7 monomer; source: Escherichia coli (LB or 15N/13C enriched minimal medium), purified (nickel column, reverse phase HPLC), lyophilized
stoichiometry N: 4 and 2
